T1: biotinylated Bre1^R6BR (Bre1 amino acids 1-212 with AviTag) (S. cerevisiae, UniProt Q07457 1-212, biotin on the AviTag)
T1 sequence (looked up): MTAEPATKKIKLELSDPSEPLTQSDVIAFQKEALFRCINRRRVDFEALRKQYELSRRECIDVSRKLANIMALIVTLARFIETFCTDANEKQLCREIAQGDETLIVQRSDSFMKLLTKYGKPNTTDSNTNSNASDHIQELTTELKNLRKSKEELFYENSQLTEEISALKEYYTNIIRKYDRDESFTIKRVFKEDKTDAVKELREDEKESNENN

B1: His6Rad6 (amino acids 1-150), co-expressed with Bre1^R6BR (enzyme, S. cerevisiae, UniProt P06104 1-150, looked up)
chain: MSTPARRRLMRDFKRMKEDAPPGVSASPLPDNVMVWNAMIIGPADTPYEDGTFRLLLEFDEEYPNKPPHVKFLSEMFHPNVYANGEICLDILQNRWTPTYDVASILTSIQSLFNDPNPASPANVEAATLFKDHKSQYVKRVKETVEKSWE
B2: Bre1^R6BR (Bre1 amino acids 1-212, Rad6-binding region) (domain or fragment, S. cerevisiae, UniProt Q07457 1-212, looked up)
chain: T1 sequence (looked up)
B3: His6Rad6 (wild type), purified alone as BLI analyte (enzyme, S. cerevisiae, UniProt P06104 1-172, looked up)
chain: MSTPARRRLMRDFKRMKEDAPPGVSASPLPDNVMVWNAMIIGPADTPYEDGTFRLLLEFDEEYPNKPPHVKFLSEMFHPNVYANGEICLDILQNRWTPTYDVASILTSIQSLFNDPNPASPANVEAATLFKDHKSQYVKRVKETVEKSWEDDMDDMDDDDDDDDDDDDDEAD

Experiments:
[1] = biological target: B2; assay: SEC-MALS
SEC-MALS = biological target: the molecule itself; assay: SEC-MALS
[2] = biological target: T1, biotinylated Bre1^R6BR (Bre1 amino …); assay: BLI

B1
stoichiometry N [1]: 0.5 Rad6 per Bre1^R6BR subunit

B2
stoichiometry N (SEC-MALS): 2

B3
Kd [2]: 112 nM

Reference: publication PMC10018343 (Nucleic Acids Research, 2023)
